Measured values taken from patent publication US20210324061A1 (ARGENX BVBA, published 2021).

B1: Fab 39B10 (Fab, V domains shown)
VH: EVQLVQSGAELKKPGASVKVSCKASGYRFTSYYIDWVRQAPGQGLEWMGRIDPEEGGTKYAQKFQGRVTMTADTSTSTAYMELSSLRSEDTAVYYCARNEWETVVVGDLMYEYEYWGQGTLVTVSS
VL: DIQMTQSPSSLSASLGDRVTITCQASQSISSYLAWYQQKPGQAPNILIYGASRLKTGVPSRFSGSGSGTDFTLTISGLEAEDFATYYCQQYASVPVTFGQGTKVEIK
notes: Germlined Fab with human CH1 and Cκ (pCB13), tested as periplasmic extract
B2: Fab 38F2 (Fab, V domains shown)
VH: QVQLVQPGAELKKPGASVKVSCKASGYRFTSYYIDWVRQAPGQGLEWMGRIDPEDAGTKYAQKFQGRVTFTADTSTSTVYVELSSLRSEDTAVYYCARNEWETVVVGDLTYEYEYWGQGTLVTVSS
VL: DIQMTQSPSSLSASVGDRVTITCQASQSISSYLAWYQQKPGKAPNLLIYGASRLKTEVPSRFSGSGSGTDFTLISGLEPEDAGTYYCQQYASVPVTFGQGTKVEIK
notes: as for B1
B3: Fab 39B6 (Fab, V domains shown)
VH: QVQLVQPGAEVRKPGASVKVSCKASGYRFTSYYIDWVRQAPGQGLEWMGRIDPEDGGTKYAQKFQGRVTMTADTSTSTVYVELSSLRSEDTAVYYCARNEWETVVVGDLMYEYEYWGQGTLVTVSS
VL: DIQMTQSPSSLSASVGDRVTITCQASQSISSYLAWYQQKPGQAPKILIYGASRLKTGVPSRFSGSGSGTSFTLTISSLEPEDAATYYCQQYASVPVTFGQGTKVEIK
notes: as for B1
B4: Fab 39A12 (Fab, V domains shown)
VH: EVQLVQPGAEVKKPGASVKVSCKASGYRFTSYYIDWVRQAPGQGLEWMGRIDPEEGGTKYAQKFQGRVTFTADTSTSTVYVELSSLRSEDTAVYYCARNEWETVVVGDLTYEYEYWGQGTLVTVSS
VL: DIQMTQSPSSLSASVGDRVTITCQASQSISSYLAWYQQKPGQAPKILIYGASRLKTGVPSRFSGSGSGTDFTLTISSLQAEDFATYYCQQYASVPVTFGQGTKVEIK
notes: Germlined Fab from the phage library with human CH1 and Cκ (pCB13), tested as periplasmic extract
B5: Fab 39A5 (Fab, V domains shown)
VH: QVQLVQPGAELRNPGASVKVSCKASGYRFTSYYIDWVRQAPGQGLEWMGRIDPEDGGTKYAQKFQGRVTFTRDTSTSTVYMELSSLRSEDTAVYYCARNEWETVVVGDLMYEYEYWGQGTLVT
VL: DIQMTQSPSSLSASLGDRVTITCQASQSISSYLAWYQQKPGQAPKLLIYGASRLKTGVPSRFSGSGSGTDFTLTISSLQPEDAATYYCQQYASVPVTFGQGTKVEIK
notes: as for B1
B6: 39B6-A IgG4 S228P (antibody, V domains shown)
VH: QVQLVQPGAEVRKPGASVKVSCKASGYRFTSYYIDWVRQAPGQGLEWMGRIDPEDAGTKYAQKFQGRVTMTADTSTSTVYVELSSLRSEDTAVYYCARNEWETVVVGDLMYEYEYWGQGTLVTVSS
VL: DIQMTQSPSSLSASVGDRVTITCQASQSISSYLAWYQQKPGQAPKILIYGASRLKTGVPSRFSGSGSGTSFTLTISSLEPEDAATYYCQQYASVPVTFGQGTKVEIKR
notes: 39B6 with G55A in HCDR2, in the human IgG4 S228P backbone; also called 39B6-ANE
B7: 39B6-AEE IgG4 S228P (antibody, V domains shown)
VH: QVQLVQPGAEVRKPGASVKVSCKASGYRFTSYYIDWVRQAPGQGLEWMGRIDPEDAGTKYAQKFQGRVTMTADTSTSTVYVELSSLRSEDTAVYYCAREEWETVVVGDLMYEYEYWGQGTLVTVSS
VL: DIQMTQSPSSLSASVGDRVTITCQASQSISSYLAWYQQKPGQAPKILIYGASRLKTGVPSRFSGSGSGTSFTLTISSLEPEDAATYYCQQYASVPVTFGQGTKVEIKR
B8: 39B10 human IgG1 (antibody, V domains shown)
VH: EVQLVQSGAELKKPGASVKVSCKASGYRFTSYYIDWVRQAPGQGLEWMGRIDPEEGGTKYAQKFQGRVTMTADTSTSTAYMELSSLRSEDTAVYYCARNEWETVVVGDLMYEYEYWGQGTLVTVSS
VL: DIQMTQSPSSLSASLGDRVTITCQASQSISSYLAWYQQKPGQAPNILIYGASRLKTGVPSRFSGSGSGTDFTLTISGLEAEDFATYYCQQYASVPVTFGQGTKVEIK
notes: Full human IgG1, made in HEK 293E cells
B9: 38F2 human IgG1 (antibody, V domains shown)
VH: QVQLVQPGAELKKPGASVKVSCKASGYRFTSYYIDWVRQAPGQGLEWMGRIDPEDAGTKYAQKFQGRVTFTADTSTSTVYVELSSLRSEDTAVYYCARNEWETVVVGDLTYEYEYWGQGTLVTVSS
VL: DIQMTQSPSSLSASVGDRVTITCQASQSISSYLAWYQQKPGKAPNLLIYGASRLKTEVPSRFSGSGSGTDFTLISGLEPEDAGTYYCQQYASVPVTFGQGTKVEIK
notes: as for B8
B10: 39B6 human IgG1 (antibody, V domains shown)
VH: QVQLVQPGAEVRKPGASVKVSCKASGYRFTSYYIDWVRQAPGQGLEWMGRIDPEDGGTKYAQKFQGRVTMTADTSTSTVYVELSSLRSEDTAVYYCARNEWETVVVGDLMYEYEYWGQGTLVTVSS
VL: DIQMTQSPSSLSASVGDRVTITCQASQSISSYLAWYQQKPGQAPKILIYGASRLKTGVPSRFSGSGSGTSFTLTISSLEPEDAATYYCQQYASVPVTFGQGTKVEIK
notes: as for B8
B11: 39A12 human IgG1 (antibody, V domains shown)
VH: EVQLVQPGAEVKKPGASVKVSCKASGYRFTSYYIDWVRQAPGQGLEWMGRIDPEEGGTKYAQKFQGRVTFTADTSTSTVYVELSSLRSEDTAVYYCARNEWETVVVGDLTYEYEYWGQGTLVTVSS
VL: DIQMTQSPSSLSASVGDRVTITCQASQSISSYLAWYQQKPGQAPKILIYGASRLKTGVPSRFSGSGSGTDFTLTISSLQAEDFATYYCQQYASVPVTFGQGTKVEIK
notes: Full human IgG1, made in HEK 293E cells; also called 39A12_T
B12: 39A5 human IgG1 (antibody, V domains shown)
VH: QVQLVQPGAELRNPGASVKVSCKASGYRFTSYYIDWVRQAPGQGLEWMGRIDPEDGGTKYAQKFQGRVTFTRDTSTSTVYMELSSLRSEDTAVYYCARNEWETVVVGDLMYEYEYWGQGTLVT
VL: DIQMTQSPSSLSASLGDRVTITCQASQSISSYLAWYQQKPGQAPKLLIYGASRLKTGVPSRFSGSGSGTDFTLTISSLQPEDAATYYCQQYASVPVTFGQGTKVEIK
notes: as for B8

Target: T1, human GARP-TGF-β1 complex (recombinant complex of human GARP and latent human TGF-β1) (human, UniProt Q14392 20-627; P01137 30-278; P01137 279-390)
T1 construct: also called huGARP-TGF-β1; hGARP-TGF-β1
Experiment: SPR, Fab in periplasmic extract, off-rate on human GARP-TGF-β1 complex
Experimental: Masterplates were picked from selection round 2, 3, 4, 5 and 6 (48 clones for each round). Periplasmic extracts were prepared and off-rates were determined by SPR. All clones were DNA-sequenced and amino acid sequences were deduced thereof. The off-rates of these clones were measured as periplasmic extracts on SPR, and compared to the off-rate of Fab 17H5.

T1 sequence (Q14392 20-627 limits assumed, chain 1 of 3): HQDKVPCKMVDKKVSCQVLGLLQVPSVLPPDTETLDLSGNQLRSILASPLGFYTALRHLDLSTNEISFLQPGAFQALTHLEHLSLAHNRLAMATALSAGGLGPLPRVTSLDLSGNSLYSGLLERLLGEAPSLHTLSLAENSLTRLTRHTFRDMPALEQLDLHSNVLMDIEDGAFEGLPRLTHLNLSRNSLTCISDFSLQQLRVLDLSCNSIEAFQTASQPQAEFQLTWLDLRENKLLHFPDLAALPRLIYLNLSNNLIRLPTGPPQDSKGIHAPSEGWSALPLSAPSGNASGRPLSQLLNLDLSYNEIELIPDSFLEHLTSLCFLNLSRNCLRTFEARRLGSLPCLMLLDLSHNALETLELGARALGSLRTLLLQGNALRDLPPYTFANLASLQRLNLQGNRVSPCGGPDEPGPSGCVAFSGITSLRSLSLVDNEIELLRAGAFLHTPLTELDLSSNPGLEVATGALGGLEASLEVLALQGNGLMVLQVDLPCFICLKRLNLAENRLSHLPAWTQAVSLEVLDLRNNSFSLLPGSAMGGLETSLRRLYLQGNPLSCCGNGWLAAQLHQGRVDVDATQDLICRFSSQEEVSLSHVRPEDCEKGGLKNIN
T1 sequence (P01137 30-278 limits assumed, chain 2 of 3): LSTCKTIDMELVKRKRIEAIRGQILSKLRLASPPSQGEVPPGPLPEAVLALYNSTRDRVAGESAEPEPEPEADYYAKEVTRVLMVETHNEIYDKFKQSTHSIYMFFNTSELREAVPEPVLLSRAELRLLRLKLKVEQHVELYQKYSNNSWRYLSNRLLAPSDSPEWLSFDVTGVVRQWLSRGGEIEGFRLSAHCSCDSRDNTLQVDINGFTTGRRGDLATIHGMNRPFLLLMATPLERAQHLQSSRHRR
T1 sequence (P01137 279-390 limits assumed, chain 3 of 3): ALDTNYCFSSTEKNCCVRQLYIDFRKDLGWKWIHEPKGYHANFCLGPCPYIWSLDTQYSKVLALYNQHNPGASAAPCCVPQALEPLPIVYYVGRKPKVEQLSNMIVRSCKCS

Row | Binder | koff
1 | B1 | 0.000236 s⁻¹
2 | B2 | 0.000408 s⁻¹
3 | B3 | 0.000105 s⁻¹
4 | B4 | 0.000606 s⁻¹
5 | B5 | 0.00019 s⁻¹

Target: T1, human GARP-TGF-β1 complex (recombinant …)
Experiment: SPR Biacore T200, CM5 chip coated with GARP-TGF-β1 complex at 150 RU
Experimental: (§1) The affinity of all antibodies (including 39B6-A) for GARP-TGF-β1 was tested by BiacoreT200 using a CM5 chip coated with GARP-TGF-β1 complex at 150RU (Table 17) or coated with the antibodies at 200RU (Table 17)

Row | Binder | Fold-difference (KD vs 39B6-A) | Kd
6 | B6 | 1 fold | 0.991 nM
7 | B7 | 5.8 fold | 5.79 nM

Target: T1, human GARP-TGF-β1 complex (recombinant …)
Experiment: SPR Biacore T200, CM5 chip coated with the antibody at 200 RU, complex in solution
Experimental: as §1

Row | Binder | Fold-difference (KD vs 39B6-A) | Kd
8 | B6 | 1 fold | 1.33 nM
9 | B7 | 76.7 fold | 102 nM

Target: T1, human GARP-TGF-β1 complex (recombinant …)
Experiment: SPR, IgG1 on human GARP-TGF-β1 complex
Description: The five germlined clones reformatted to human IgG1 were produced by transient transfection in HEK 293E cells.

Row | Binder | Kd | fold difference (KD vs 17H5)
10 | B8 | 0.262 nM | 2.6 fold
11 | B9 | 0.48 nM | 4.8 fold
12 | B10 | 0.167 nM | 1.7 fold
13 | B11 | 0.505 nM | 5.1 fold
14 | B12 | 0.298 nM | 3 fold
